Experiments:
Details in all cases: remark: other sources report otherwise
[1] = target: T1, E2 ubiquitin-conjugating enzyme USE1 (endogenous, wild type) (human (endogenous in HEK293T, human fibroblasts and iPSC-derived neurons)), Q9H832; test: FRET or BRET; FLIM-FRET (two-photon FLIM) in fixed WT and USE1 ΔPolyAla KO HEK293T cells; endogenous USE1 and UBA6 stained, secondary antibodies Alexa 488 (donor, USE1) and Alexa 555 (acceptor, UBA6); lifetime of donor only minus donor and acceptor
T1 chain: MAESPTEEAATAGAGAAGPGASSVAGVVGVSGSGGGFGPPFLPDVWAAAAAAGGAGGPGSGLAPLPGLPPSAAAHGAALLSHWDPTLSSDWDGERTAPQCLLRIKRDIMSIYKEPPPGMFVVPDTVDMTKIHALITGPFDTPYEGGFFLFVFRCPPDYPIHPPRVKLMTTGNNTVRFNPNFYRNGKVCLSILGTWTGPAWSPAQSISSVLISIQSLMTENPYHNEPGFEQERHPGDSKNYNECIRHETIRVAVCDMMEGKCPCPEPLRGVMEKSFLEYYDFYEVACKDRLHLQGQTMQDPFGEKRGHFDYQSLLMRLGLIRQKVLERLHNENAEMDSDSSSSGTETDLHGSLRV

[2] = target: T1, E2 ubiquitin-conjugating enzyme USE1 …; test: FRET or BRET; FLIM-FRET (two-photon FLIM) in iPSC-derived autonomic neurons of healthy controls; endogenous USE1 (donor, Alexa 488) and UBA6 (acceptor, Alexa 555); lifetime of donor only minus donor and acceptor
[3] = target: T1, E2 ubiquitin-conjugating enzyme USE1 …; test: FRET or BRET; FLIM-FRET (two-photon FLIM) in iPSC-derived autonomic neurons of CCHS patients (PHOX2B polyalanine expansion); endogenous USE1 (donor, Alexa 488) and UBA6 (acceptor, Alexa 555); lifetime of donor only minus donor and acceptor

B1: E1 ubiquitin-activating enzyme UBA6 (endogenous), A0AVT1 1-1052 (enzyme)
chain: MEGSEPVAAHQGEEASCSSWGTGSTNKNLPIMSTASVEIDDALYSRQRYVLGDTAMQKMAKSHVFLSGMGGLGLEIAKNLVLAGIKAVTIHDTEKCQAWDLGTNFFLSEDDVVNKRNRAEAVLKHIAELNPYVHVTSSSVPFNETTDLSFLDKYQCVVLTEMKLPLQKKINDFCRSQCPPIKFISADVHGIWSRLFCDFGDEFEVLDTTGEEPKEIFISNITQANPGIVTCLENHPHKLETGQFLTFREINGMTGLNGSIQQITVISPFSFSIGDTTELEPYLHGGIAVQVKTPKTVFFESLERQLKHPKCLIVDFSNPEAPLEIHTAMLALDQFQEKYSRKPNVGCQQDSEELLKLATSISETLEEKPDVNADIVHWLSWTAQGFLSPLAAAVGGVASQEVLKAVTGKFSPLCQWLYLEAADIVESLGKPECEEFLPRGDRYDALRACIGDTLCQKLQNLNIFLVGCGAIGCEMLKNFALLGVGTSKEKGMITVTDPDLIEKSNLNRQFLFRPHHIQKPKSYTAADATLKINSQIKIDAHLNKVCPTTETIYNDEFYTKQDVIITALDNVEARRYVDSRCLANLRPLLDSGTMGTKGHTEVIVPHLTESYNSHRDPPEEEIPFCTLKSFPAAIEHTIQWARDKFESSFSHKPSLFNKFWQTYSSAEEVLQKIQSGHSLEGCFQVIKLLSRRPRNWSQCVELARLKFEKYFNHKALQLLHCFPLDIRLKDGSLFWQSPKRPPSPIKFDLNEPLHLSFLQNAAKLYATVYCIPFAEEDLSADALLNILSEVKIQEFKPSNKVVQTDETARKPDHVPISSEDERNAIFQLEKAILSNEATKSDLQMAVLSFEKDDDHNGHIDFITAASNLRAKMYSIEPADRFKTKRIAGKIIPAIATTTATVSGLVALEMIKVTGGYPFEAYKNCFLNLAIPIVVFTETTEVRKTKIRNGISFTIWDRWTVHGKEDFTLLDFINAVKEKYGIEPTMVVQGVKMLYVPVMPGHAKRLKLTMHKLVKPTTEKKYVDLTVSFAPDIDGDEDLPGPPVRYYFSHDTD
[1]
  difference in fluorescence lifetime (donor only to donor and acceptor): 0.099 ns
[2]
  difference in fluorescence lifetime (donor only minus donor and acceptor): 0.253
[3]
  difference in fluorescence lifetime (donor only minus donor and acceptor): 0.025
